{"source": "patent US20030040614", "test_system": "GsuI restriction endonuclease", "conditions": "methylation of top strand; bottom strand 664; B+ buffer, 30 uM AdoMet, 37 C 3 h"}
{"sequence": "AGTTCTGGAGCATCGTTCACCGGTTACAAC / TGGTTGTAACCGGTAACGGATGCTCCAGAACTTCTC [duplex #1 GsuI site]", "values": [{"measurement": "activity (3H radioactivity (units not stated))", "result": 13200}]}
